Experimental data taken from paper PMC9582199, “Molecular architecture of the glycogen- committed PP1/PTG holoenzyme” (Nature Communications, 2022).
Like-named read-outs stand apart in the source and are kept apart here. One block for each molecule: values may come before it.

Legend:
PP1 (Homo sapiens) [1] = target: PP1 (Homo sapiens) (UniProt P62136); conditions: cited from earlier work
GM CBM21 = conditions: cited from earlier work
Source text: The same two sugar-binding sites have been identified in the crystal structures of Rhizopus oryzae CBM21[13],[14]; site II is the primary binding site, while site I has been hypothesized to contribute to the binding of long-chain soluble polysaccharides and insoluble starch or to the relaxation and unwinding of helical amylose[15],[16].

PP1 (Homo sapiens) [2] = target: PP1 (Homo sapiens) (UniProt P62136); conditions: cited from earlier work; remark: listed apart in the source
6xHis-tagged PP1 7-330 = target: T1, 6xHis-tagged PP1 7-330 (human, UniProt P62136 7-330); test: grating-coupled interferometry (GCI); 6xHis-tagged PP1 7-330 captured on 4PCP-NTA WAVE chips (3600 pg/mm2 for PTG 81-107, 1600 pg/mm2 for PTG 81-132); peptides injected, 1:2 dilution series from 300 nM; 10 mM Hepes pH 7.2, 150 mM NaCl, 0.005% Tween 20, 0.2 mg/ml BSA; 25 °C; 100 µl/min; mass transport binding model; conditions: both partners purified
T1 construct: Serine/threonine-protein phosphatase PP1-alpha catalytic subunit, human, UniProt P62136, residues 7-330; Captured by its His tag on 4PCP-NTA chips; a TEV site lies between tag and protein; source: E. coli BL21 (DE3) pGro7, purified (Ni-NTA, SEC); not shown: His6, N-terminal, kept
T1 sequence (P62136 7-330): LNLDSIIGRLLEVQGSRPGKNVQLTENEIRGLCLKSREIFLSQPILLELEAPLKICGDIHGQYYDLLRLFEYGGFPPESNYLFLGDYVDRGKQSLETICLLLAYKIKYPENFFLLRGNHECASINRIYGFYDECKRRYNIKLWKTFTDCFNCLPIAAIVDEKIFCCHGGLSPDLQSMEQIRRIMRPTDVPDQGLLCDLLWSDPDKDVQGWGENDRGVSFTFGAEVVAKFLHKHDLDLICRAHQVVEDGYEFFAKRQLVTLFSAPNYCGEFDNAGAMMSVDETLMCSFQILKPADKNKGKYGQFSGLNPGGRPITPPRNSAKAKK

6xHis-tagged PP1^7-330 = 6xHis-tagged PP1^7-330 (UniProt P62136 7-330, Mn2+ in active site (expressed and purified with MnCl2); N-terminal 6xHis tag used for capture, left out. Alpha isoform taken from the authors' PDB entries 7QFB/7QM2 and the residue numbering); test: grating-coupled interferometry (GCI); 6xHis-tagged PP1 7-330 reversibly captured on 4PCP-NTA WAVE chip (3600 or 1600 pg/mm^2); peptides injected, 1:2 dilution series from 300 nM; 25 °C; 10 mM Hepes pH 7.2, 150 mM NaCl, 0.005% Tween 20, 0.2 mg/ml BSA; mass transport binding model; conditions: both partners purified
Sequence of 6xHis-tagged PP1^7-330 (P62136 7-330): as above

PP1 7-330 = target: T2, PP1 7-330 (Homo sapiens, UniProt P62136); test: GCI binding of immobilized PTG constructs to PP1 as analyte; conditions: GCI titrations, compared with PTG peptides 81–107 and 81–132
T2 construct: reversibly capturing 6xHis-tagged PP1^7-330; host or cells: E. coli BL21 (DE3) pGro7
T2 sequence (P62136 7-330): as above
Method: Grating-coupled interferometry (GCI) experiments were performed using the Creoptix WAVE system, a new generation instrument for the high-sensitivity kinetics and affinity analysis of label-free molecular interactions based on the waveguide interferometry technology. Waveguide interferometry exceeds the sensitivity levels of Surface Plasmon Resonance (SPR). […] GCI allows getting high resolution even at very low signal levels with low noise without artificial data averaging and reliable kinetics below 1 pg/mm^2. By the lower immobilization levels that are required, it avoids mass transport limitations. It covers the broadest kinetic range with the capability of analyzing of the ultra-fast transition times (i.e. 150 ms). It allows the reliable determination of off-rates of 5 s^–1 and even faster, enabling off-rate screening of weakly binding analytes. GCI can be applied to a wide range of pharmacological targets, with improved results on very low molecular weight compounds, to the dimensions of metal ions[56].
WAVE chips are composed of four channels or cells. Borate buffer (100 mM sodium borate pH 9.0, 1 M NaCl) was used for chip conditioning. To evaluate the kinetics of the PTG interaction with β-cyclodextrin and PP1, PTG^70-264 (20 µg/ml in buffer acetate pH 5.0) was immobilized on 4PCH WAVE chips (quasiplanar polycarboxylate surface; Creoptix) by standard amine coupling according to the manufacturer’s instructions at a density of 1800 pg/mm^2 and 1000 pg/mm^2 for β-cyclodextrin and PP1^7-330, respectively (Supplementary Figs. 8, 9). Regeneration-free injections of a 1:3 dilution series from 500 µM for β-cyclodextrin in running buffer (10 mM Hepes pH 7.2, 150 mM NaCl, 0.005% Tween 20) were performed at 25 °C, using a flow rate of 100 μl/min. Similarly, regeneration-free injections of a 1:2 dilution series from 400 nM for PP1^7-330 in the same running buffer were performed at 25 °C, using a flow rate of 30 μl/min. […]
Supplementary Figure 3: Quantitative binding kinetics by GCI. […]

[3] = target: T3, PP1 7-330 (Serine/threonine-protein phosphatase PP1-alpha catalytic subunit, residues 7-330) (human, UniProt P62136 7-330); test: grating-coupled interferometry (GCI); PTG 70-264 immobilised by amine coupling on a 4PCH WAVE chip at 1000 pg/mm2; PP1 7-330 injected, 1:2 dilution series from 400 nM; 10 mM Hepes pH 7.2, 150 mM NaCl, 0.005% Tween 20; 25 °C; 30 µl/min; mass transport binding model; conditions: both partners purified
T3 construct: Serine/threonine-protein phosphatase PP1-alpha catalytic subunit, human, UniProt P62136, residues 7-330; source: E. coli BL21 (DE3) pGro7, purified (Ni-NTA, SEC)
T3 sequence (P62136 7-330): as above

Sequence of PP1 (Homo sapiens) (P62136 2-330): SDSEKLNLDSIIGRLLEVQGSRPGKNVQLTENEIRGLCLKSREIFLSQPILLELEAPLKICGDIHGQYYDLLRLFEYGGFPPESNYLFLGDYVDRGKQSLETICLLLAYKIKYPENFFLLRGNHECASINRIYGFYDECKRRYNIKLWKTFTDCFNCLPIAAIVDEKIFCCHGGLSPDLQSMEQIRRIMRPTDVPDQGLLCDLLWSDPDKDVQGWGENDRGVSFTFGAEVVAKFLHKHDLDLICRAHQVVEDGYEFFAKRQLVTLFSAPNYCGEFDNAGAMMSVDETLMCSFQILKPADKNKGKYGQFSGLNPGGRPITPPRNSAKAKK

Molecule: GM 64-105 (from UniProt Q00756)
- Kd (PP1 (Homo sapiens) [1]): 114 nM

Molecule: OC[C@H]1O[C@@H]2O[C@H]3[C@H](O)[C@@H](O)[C@@H](O[C@H]4[C@H](O)[C@@H](O)[C@@H](O[C@H]5[C@H](O)[C@@H](O)[C@@H](O[C@H]6[C@H](O)[C@@H](O)[C@@H](O[C@H]7[C@H](O)[C@@H](O)[C@@H](O[C@H]1[C@H](O)[C@H]2O)O[C@@H]7CO)O[C@@H]6CO)O[C@@H]5CO)O[C@@H]4CO)O[C@@H]3CO [α-cyclodextrin]
- Kd (GM CBM21): 27600 nM

Molecule: GM 64-237 (from UniProt Q00756)
- Kd (PP1 (Homo sapiens) [2]): 21 nM

- Kd (6xHis-tagged PP1 7-330): 7.7 nM
- koff (6xHis-tagged PP1 7-330): 0.0026 s⁻¹
- kon (6xHis-tagged PP1 7-330): 357000 M⁻¹ s⁻¹
B1: PTG peptide 81-132 (peptide, UniProt Q9UQK1 81-132, looked up)
peptide: AKKRVVFADSKGLSLTAIHVFSDLPEEPAWDLQFDLLDLNDISSALKHHEEK
notes: also called peptide 2; source: synthetic peptide, bought: ProteoGenix SAS

- Kd (6xHis-tagged PP1 7-330): 14.1 nM
- koff (6xHis-tagged PP1 7-330): 0.00295 s⁻¹
- kon (6xHis-tagged PP1 7-330): 208000 M⁻¹ s⁻¹
B2: PTG peptide 81-107 (peptide, UniProt Q9UQK1 81-107, looked up)
peptide: AKKRVVFADSKGLSLTAIHVFSDLPEE
notes: also called peptide 1; source: synthetic peptide, bought: ProteoGenix SAS

- Kd (6xHis-tagged PP1^7-330): 14 nM
B3: PTG peptide 81-107 (peptide, UniProt Q9UQK1 81-107, looked up)
peptide: AKKRVVFADSKGLSLTAIHVFSDLPEE
notes: also called PTG N-terminal peptide; source: synthetic peptide, bought: ProteoGenix SAS

- binding to PP1 (in words) (PP1 7-330): no interaction was detected
- binding to PP1 (in words) (PP1 7-330; listed as isolated CBM21): undetectable binding
B4: CBM21 aa. 132–264: recombinant PTG carbohydrate-binding module 21, residues 132–264 (protein)
chain: KNLILDFPQPSTDYLSFRSHFQKNFVCLENCSLQERTVTGTVKVKNVSFEKKVQIRITFDSWKNYTDVDCVYMKNVYGGTDSDTFSFAIDLPPVIPTEQKIEFCISYHANGQVFWDNNDGQNYRIVHVQWKPD
modifications: left off: His6, N-terminal, cleaved

- Kd [3]: 87 nM
- koff [3]: 0.0043 s⁻¹
- kon [3]: 50000 M⁻¹ s⁻¹
B5: PTG 70-264 (Protein phosphatase 1 regulatory subunit 3C, residues 70-264) (domain or fragment, human, UniProt Q9UQK1 70-264, looked up)
chain: SQNDWKCSHNQAKKRVVFADSKGLSLTAIHVFSDLPEEPAWDLQFDLLDLNDISSALKHHEEKNLILDFPQPSTDYLSFRSHFQKNFVCLENCSLQERTVTGTVKVKNVSFEKKVQIRITFDSWKNYTDVDCVYMKNVYGGTDSDTFSFAIDLPPVIPTEQKIEFCISYHANGQVFWDNNDGQNYRIVHVQWKPD
notes: GST removed on the column with 3C protease; also called PPP1R3C; protein targeting to glycogen; source: E. coli, co-expressed with GroEL/ES (pGro7), purified (glutathione agarose, SEC); for the crystal co-expressed with PP1 7-300; not shown: GST, N-terminal, cleaved

- binding to PP1 (in words) (PP1 7-330): did not bind PP1 any better
B6: PTG70-264: recombinant human PTG residues 70–264, encompassing the PP1-binding region and the CBM21 (protein)
chain: SQNDWKCSHNQAKKRVVFADSKGLSLTAIHVFSDLPEEPAWDLQFDLLDLNDISSALKHHEEKNLILDFPQPSTDYLSFRSHFQKNFVCLENCSLQERTVTGTVKVKNVSFEKKVQIRITFDSWKNYTDVDCVYMKNVYGGTDSDTFSFAIDLPPVIPTEQKIEFCISYHANGQVFWDNNDGQNYRIVHVQWKPD
modifications: left off: GST, N-terminal, cleaved
